Reference: patent publication US20100322893A1 (MEDLMMUNE, published 2010)

Tests used:
B7-2 on Raji cells = B7-2 on Raji cells (UniProt P42081); assay: cell-based or functional assay; set-up: unit not given beside the values
B7-1 on Raji cells = B7-1 on Raji cells (UniProt P33681); assay: cell-based or functional assay; set-up: unit not given beside the values
[1] = target: T1, B7-1 coated on the plate of the stability RIA (human, UniProt P33681 35-242); assay: stability RIA: 35S-labelled in vitro translated CTLA-4 on a plate coated with B7-1, non-reducing conditions
T1 construct: also called human B7-1 (RnD Systems, 140-B1)
T1 sequence (looked up): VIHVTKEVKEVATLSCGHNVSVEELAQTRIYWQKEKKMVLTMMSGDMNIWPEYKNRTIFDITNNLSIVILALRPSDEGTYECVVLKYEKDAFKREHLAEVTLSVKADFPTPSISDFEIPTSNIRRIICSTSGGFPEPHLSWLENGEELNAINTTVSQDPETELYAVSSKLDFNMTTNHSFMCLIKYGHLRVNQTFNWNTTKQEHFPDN
Procedure: (§1) CTLA-4 variants were screened for stability using the primary stability RIA (radio immunoassay) as described in Jermutus et al., (2001). In brief for each variant a linear DNA template was amplified, transcribed, the mRNA purified on G25 Sephadex® columns and quantified. For each variant in vitro translations in the presence of ³⁵S-labelled methionine were set up in duplicate at 30° C. for 30 min, one in non-reducing conditions and one in 10 mM DTT (dithiothreitol). The translations were stopped with PBS with 0.050 Tween 20, with DTT at the same concentration as the translations. The translation mixture was incubated on a plate coated with B7-1 for 1 hour at room temperature. Plates were washed three times in PBS with 0.05% Tween 20® and three times in PBS. The remaining radioactivity was eluted with 0.1 M triethylamine and quantified by liquid scintillation counting. A measure of the variants' stability was calculated as the percentage residual binding i.e. binding signal in presence of DTT, divided by binding signal in absence of DTT, multiplied by 100.

[2] = target: T1, B7-1 coated on the plate of the …; assay: stability RIA: 35S-labelled in vitro translated CTLA-4 on a plate coated with B7-1, 10 mM DTT against no DTT
Procedure: as §1

Chain of B7-2 on Raji cells (P42081 24-329 limits assumed): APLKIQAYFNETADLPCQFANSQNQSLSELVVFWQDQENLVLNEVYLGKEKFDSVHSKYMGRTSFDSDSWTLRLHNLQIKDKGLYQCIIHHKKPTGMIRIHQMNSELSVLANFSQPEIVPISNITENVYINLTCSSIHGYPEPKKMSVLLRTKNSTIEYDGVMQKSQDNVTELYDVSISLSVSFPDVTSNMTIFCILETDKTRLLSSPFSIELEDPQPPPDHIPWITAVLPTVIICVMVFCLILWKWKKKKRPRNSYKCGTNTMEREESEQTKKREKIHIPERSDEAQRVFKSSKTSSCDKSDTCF

For “CTLA-4 human wild-type (SEQ ID NO: 8), CTLA-4-Fc form (from UniProt P16410 37-161) (Fc fusion; in M (unit assumed))”, the EC50, inhibition of IL-2 production in the Jurkat and Raji dual cell assay (B7-1 and B7-2 both free) (B7-2 on Raji cells) was 1.27e-08 and the EC50, inhibition of IL-2 production in the Jurkat and Raji dual cell assay (B7-1 and B7-2 both free) (B7-1 on Raji cells) was 1.27e-08.

B1: CTLA-4 variant Var 3 (SEQ ID 7), monomeric form with serine at position 121, translated in vitro (receptor)
chain: AMHVAQPAVVLASSRGIASFVCEYAPPGKATEVRVTVLRQADSQVTEVWAATYMMGNESTFPDDSICTGTFSGNQVNLTIRGLRAMDTGLYICEVELMYPPPYYLGIGNGTQIYVIDPEPSPDSD
modifications: 35S-labelled methionine
With B1 the “Signal DTT- (RIA signal after non-reducing conditions, signal over background)” value [1] was 13.2 signal over background and the “% Residual Binding (signal in 10 mM DTT divided by signal without DTT, times 100)” value [2] was 75%.

B2: CTLA-4 variant Var 1 (SEQ ID 5), monomeric form with serine at position 121, translated in vitro (receptor)
chain: AMHVAQPAVVLASSRGTASFVCEYAPPGKATEVRVTVLRQADSQVTEVYAATYMMGNESTSLDDSICTGTFSGNQVNLTIQGLRAMDTGLYICEVELMYPPPYYLGIGNGTQIYVIDPEPSPDSD
modifications: 35S-labelled methionine
With B2 the “Signal DTT- (RIA signal after non-reducing conditions, signal over background)” value [1] was 2.6 signal over background and the “% Residual Binding (signal in 10 mM DTT divided by signal without DTT, times 100)” value [2] was 55%.

B3: CTLA-4 variant Var 2 (SEQ ID 6), monomeric form with serine at position 121, translated in vitro (receptor)
chain: AMHVAQPAVVLASSRGIASFVCEYAPPGKATEVRVTVLRQADGQVSEVCAATYMMGNESTFLDDSICTGTFSGNQVNLTIRGLRAMDTGLYICEVELMYPPPYYLGIGNGTQIYVIDPEPSPDSD
modifications: 35S-labelled methionine
With B3 the “Signal DTT- (RIA signal after non-reducing conditions, signal over background)” value [1] was 29.8 signal over background and the “% Residual Binding (signal in 10 mM DTT divided by signal without DTT, times 100)” value [2] was 11%.
